Assay results as given in patent publication US20220185863A1, “COMBINATION THERAPIES” (Shattuck Labs, Inc., priority 2019, published 2022).

What was measured:
CT26 tumor = test: In vivo anti-tumor activity of TIGIT-Fc-LIGHT chimeric protein and anti-PD1 antibody in mice challenged with CT26 tumor; design: species or system mouse; conditions: monotherapy on days 1, 3, and 6, compared to vehicle only-treated mice
Excerpt: FIG. 5B is a Kaplan Meyer plot of survival and statistics of the CT26 tumor experiment of FIG. 5A. […] FIG. 5C and FIG. 5D includes data relevant to the graphs of FIG. 5A and FIG. 5B.

[1] = tested on: tumor infiltrating lymphocytes (TIL) of CT26 (colorectal carcinoma) tumors; test: Immune phenotyping of tumor infiltrating lymphocytes (TIL) by flow cytometry; format: in vivo, BALB/C mice; conditions: IP days 0, 3, 6; 300 mg ARC, 100 mg anti-PD-1; tumor collected day 7
Excerpt: FIG. 6A to FIG. 6G show the results of immune phenotyping of the tumor infiltrating lymphocytes (TIL) in BALB/C mice harboring CT26 (colorectal carcinoma) tumor allografts treated with ARC (TIGIT-Fc-OX40L or TIGIT-Fc-LIGHT) alone or the combination with anti-PD-1 (clone RMP1-14) antibody. The fractions (expressed as percentages) of total CD8^+ cells (FIG. 6A), total Perforin CD8^+ cells (FIG. 6B), total IFNγ^+ CD8^+ cells (FIG. 6C), total AH1-tetramer CD8^+ cells (antigen-specific CD8^+ cells) (FIG. 6D), total CD4±cells (FIG. 6E), total NKP46^+ NK cells (FIG. 6F) and total IFNγ±(NKP46^+ NK) cells (FIG. 6G) in the indicated cell populations in the dissociated tumor tissue as determined by flow cytometry analyses.
BALB/C mice were inoculated with CT26 (colorectal carcinoma) tumors, and when starting tumor volumes reached 30-60 mm^3 (indicating day 0), treatment was begun. Mice were treated via intraperitoneal (IP) injection on days 0, 3, and 6 with […] of either ARC (TIGIT-Fc-OX40L or TIGIT-Fc-LIGHT) or the combination of each ARC with […] of anti-PD-1 (clone RMP1-14). On day 7, mice were euthanized, tumor tissue was collected and dissociated, and analyzed by flow cytometry and calculated as percent cell types. The total % of CD8+ T cells detected in the tumor are similar between treatment groups (FIG. 6A).
The immunodominant CD8+ T cell response against CT26 carcinoma cells is directed against a tumor/self-antigen, GP70423-431, also known as AH1. To evaluate the T cell response against CT26, total AH1-tetramer CD8^+ cells were quantitated.
Other relevant cell types, including total % of CD4+ T cells, NKP46^+ NK cells, including the total IFNγ±NKP46^+ NK cells in the tumors were also quantitated. […] The IFNγ±cells were quantitated among NKP46^+ NK cells.

tumors [2] = test: In vivo anti-tumor activity of TIGIT-Fc-OX40L chimeric protein and anti-CTLA-4 antibody in tumor-inoculated mice
Description: The in vivo ability of combinations of the TIGIT-Fc-OX40L chimeric protein with anti-CTLA-4 antibodies (FIG. 3A to FIG. 3C) to target and treat tumors were determined.
(§1) Mice were inoculated with tumors and were treated with a vehicle, an antibody, the TIGIT-Fc-OX40L chimeric protein, or combinations of the TIGIT-Fc-OX40L chimeric protein and an anti-CTLA-4 antibody; in the combinations, the TIGIT-Fc-OX40L chimeric protein was administered before the antibody, the TIGIT-Fc-OX40L chimeric protein was administered after the antibody, or the TIGIT-Fc-OX40L chimeric protein was administered with the antibody. See, FIG. 3A for the dose schedules.
FIG. 3C includes data relevant to the graphs of FIG. 3A and FIG. 3B.

tumors [3] = test: In vivo anti-tumor activity of TIGIT-Fc-OX40L chimeric protein and anti-PD-1 antibody in tumor-inoculated mice
Description: The in vivo ability of combinations of the TIGIT-Fc-OX40L chimeric protein with anti-PD-1 antibodies (FIG. 4A to FIG. 4D) to target and treat tumors were determined.
as §1, with “anti-PD-1” for “anti-CTLA-4”, “antibody.” for “antibody. See, FIG. 3A for the dose schedules.”
FIG. 4C and FIG. 4D include data relevant to the graphs of FIG. 4A and FIG. 4B.

[4] = administered on days 7, 9, and 11, compared to vehicle only-treated mice and to days 12, 14, 16 schedule
[5] = administered on days 12, 14, and 16, compared to vehicle only-treated mice
[6] = compared to the dosing regimen-matched αCTLA antibody-treated mice
[7] = compared to the dosing regimen-matched αPD-1 antibody-treated mice

Molecule	survival (CT26 tumor)	tumor development (CT26 tumor)	total AH1-tetramer CD8+ cells among the total CD8+ cells [1]	total CD4+ cells among the total mononuclear cells [1]	total IFNγ+ CD8+ cells among the total CD8+ cells [1]	total IFNγ+ cells among the total NKP46+ NK cells [1]	total NKP46+ NK cells among the total mononuclear cells [1]	total Perforin CD8+ cells among the total CD8+ cells [1]	survival (tumors [2]; [4])	tumor development (tumors [2]; [4])	survival (tumors [2]; [5])	tumor development (tumors [2]; [5])	survival (tumors [2]; [6])	tumor development (tumors [2]; [6])	survival (tumors [3]; [4])	tumor development (tumors [3]; [4])	survival (tumors [3]; [5])	tumor development (tumors [3]; [5])	survival (tumors [3]; [7])	tumor development (tumors [3]; [7])
TIGIT-Fc-LIGHT: chimeric protein: extracellular domain of TIGIT, hinge-CH2-CH3 Fc linker, extracellular domain of LIGHT (SEQ ID NO: 61) (protein) MEWSWVFLFFLSVTTGVHSMMTGTIETTGNISAEKGGSIILQCHLSSTTAQVTQVNWEQQDQLLAICNADLGWHISPSFKDRVAPGPGLGLTLQSLTVNDTGEYFCIYHTYPDGTYTGRIFLEVLESSVAEHGARFQIPSKYGPPCPPCPAPEFLGGPSVFLFPPKPKDQLMISRTPEVTCVVVDVSQEDPEVQFNWYVDGVEVHNAKTKPREEQFNSTYRVVSVLTVLHQDWLSGKEYKCKVSSKGLPSSIEKTISNATGQPREPQVYTLPPSQEEMTKNQVSLTCLVKGFYPSDIAVEWESNGQPENNYKTTPPVLDSDGSFFLYSRLTVDKSRWQEGNVFSCSVLHEALHNHYTQKSLSLSLGKIEGRMDLQLHWRLGEMVTRLPDGPAGSWEQLIQERRSHEVNPAAHLTGANSSLTGSGGPLLWETQLGLAFLRGLSYHDGALVVTKAGYYYIYSKVQLGGVGCPLGLASTITHGLYKRTPRYPEELELLVSQQSPCGRATSSSRVWWDSSFLGGVVHLEAGEKVVVRVLDERLVRLRDGTRSYFGAFMV	extended survival	slower tumor development	increased	increased	increased	increased	increased	increased												
TIGIT-Fc-OX40L: chimeric protein: extracellular domain of TIGIT, hinge-CH2-CH3 Fc linker, extracellular domain of OX40L (SEQ ID NO: 60) (protein) MMTGTIETTGNISAEKGGSIILQCHLSSTTAQVTQVNWEQQDQLLAICNADLGWHISPSFKDRVAPGPGLGLTLQSLTVNDTGEYFCIYHTYPDGTYTGRIFLEVLESSVAEHGARFQIPSKYGPPCPPCPAPEFLGGPSVFLFPPKPKDQLMISRTPEVTCVVVDVSQEDPEVQFNWYVDGVEVHNAKTKPREEQFNSTYRVVSVLTVLHQDWLSGKEYKCKVSSKGLPSSIEKTISNATGQPREPQVYTLPPSQEEMTKNQVSLTCLVKGFYPSDIAVEWESNGQPENNYKTTPPVLDSDGSFFLYSRLTVDKSRWQEGNVFSCSVLHEALHNHYTQKSLSLSLGKIEGRMDQVSHRYPRIQSIKVQFTEYKKEKGFILTSQKEDEIMKVQNNSVIINCDGFYLISLKGYFSQEVNISLHYQKDEEPLFQLKKVRSVNSLMVASLTYKDKVYLNVTTDNTSLDDFHVNGGELILIHQNPGEFCVL			increased	increased	increased	increased	increased	increased	extended survival	slower tumor development	extended survival	slower tumor development	extended survival	slower tumor development	extended survival	slower tumor development	extended survival	slower tumor development	extended survival	slower tumor development
